Data published in patent publication US9217013B2, “Treatment of amyloidoses using myelin basic protein and fragments thereof” (The Research Foundation for the State University of New York, priority 2008, dated 2015).

Molecular target: Dutch/Iowa Aβ40 (Aβ40DI) (Homo sapiens, UniProt P05067, D694N/E693Q)
Assay: TEM and single-touch AFM of Aβ40DI fibril formation
Type: biochemical
Protocol: FIG. 18 Inhibition of Aβ40DI fibril formation by MBP as assessed by TEM and single-touch AFM analyses. Aβ40DI peptides at a concentration of 12.5 μM in PBS in the absence or presence of 1.56 μM MBP. Samples were imaged at 6 h by TEM (A and B) and at 3 h by single-touch AFM (D and E). Aliquots of 1.56 μM MBP alone were imaged by TEM (C) and by AFM (F).
For electron microscopy, a 20 μl aliquot of the sample mixture was deposited onto a Formvar-coated copper mesh grid. The sample was allowed to stand for 60 s, and excess solution was wicked away. The samples were negatively stained with 2% (w/v) uranyl acetate. The excess stain was wicked away, and the sample was allowed to dry. The samples were viewed with an FEI Tecnai 12 BioTwin transmission electron microscope, and digital images were taken with an Advanced Microscopy Techniques camera.
Atomic force microscopy (“AFM”) was carried out using a lifeScan controller (LifeAFM Inc., Port Jefferson, N.Y.) interfaced with a MultiMode microscope (Digital Instruments, Santa Barbara, Calif.) fitted with an E seamier. With this instrument configuration, only a single contact of the AFM probe is made with the sample per pixel. Computer control of the cantilever position and angle during approach allows for detection of the sample height with minimum cantilever deflection, allowing for a minimum compressive force (30-100 piconewtons/nm) applied to the sample. AFM samples were prepared by adsorbing 20 μl of sample mixture to freshly cleaved ruby mica (S & J Trading, Inc., Glen Oaks, N.Y.) for 45 min to 1 h. The samples were rehydrated with ultrapure Milli-Q water (Millipore Corp., Billerica, Mass.) and immediately imaged. Samples were imaged using SuperSharpSilicon probes (SSS-CONT, NANOSENSORS, Neuchatel, Switzerland) that were modified for magnetic retraction by attaching samarium cobalt particles. The effective diameter of the SuperSharpSilicon probes was 4±1 nm at a height of 2 nm. Data analysis and graphics were performed using Interactive Display Language Version 5.0 (Research Systems, Inc., Boulder, Colo.). In the Z-scale bars, numbers in each color square indicate the Z-value at the middle of the range for that color.

[1] = in the presence of MBP at 3 hours

B1: myelin basic protein (protein)
chain: ASQKRPSQRHGSKYLATASTMDHARHGFLPRHRDTGILDSIGRFFGGDRGAPKRGSGKDSHHPARTAHYGSLPQKSHGRTQDENPVVHFFKNIVTPRTPPPSQGKGRGLSLSRFSWGAEGQRPGFGYGGRASDYKSAHKGFKGVDAQGTLSKIFKLGGRDSRSGSPMARR
notes: myelin basic protein, major form about 18.5 Kd (170 residues); purified protein
aggregation of MBP alone (TEM and AFM) (1.56 μM MBP alone): does not aggregate significantly
Aβ40DI fibril formation by TEM (6 hours, sub-stoichiometric MBP): no evidence of fibril formation
heights of Aβ40DI oligomers and protofibrils by AFM [1]: ≈ 2 nm
lengths of Aβ40DI oligomers and protofibrils by AFM [1]: < 200 nm
